Earlier results, collected in paper PMC3008546.

Target: DNA ligase IV BRCT (Homo sapiens) (UniProt P49917)
Sequence (P49917 654-911): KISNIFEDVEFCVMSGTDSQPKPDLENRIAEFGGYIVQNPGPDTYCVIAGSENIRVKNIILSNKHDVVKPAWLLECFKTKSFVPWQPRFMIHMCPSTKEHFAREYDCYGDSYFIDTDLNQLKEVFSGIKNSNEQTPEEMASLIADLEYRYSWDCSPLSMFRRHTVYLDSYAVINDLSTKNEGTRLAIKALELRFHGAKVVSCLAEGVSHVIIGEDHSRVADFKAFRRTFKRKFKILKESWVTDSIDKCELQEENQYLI

XRCC4, sequence (Q13426 266-336): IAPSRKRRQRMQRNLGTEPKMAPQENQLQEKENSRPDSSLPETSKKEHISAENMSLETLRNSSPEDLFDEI

Substance: XRCC4 (from UniProt Q13426)
- Kd: 1 nM
